In article doi:10.1101/412908 (bioRxiv, 2018):

B1: human Hsp90β (natural protein)
chain: not shown
B2: acrylodan-labeled C-terminal domain of Aha1 (164-338) (domain or fragment)
chain: ILPTMNGESVDPVGQPALKTEERKAKPAPSKTQARPVGVKIPTCKITLKETFLTSPEELYRVFTTQELVQAFTHAPATLEADRGGKFHMVDGNVSGEFTDLVPEKHIVMKWRFKSWPEGHFATITLTFIDKNGETELCMEGRGIPAPEEERTRQGWQRYYFEGIKQTFGYGARLF
modifications: acrylodan (thiol-reactive probe on cysteine residues)

Assays:
[1] = molecular target: B2; assay: other fluorescence titration
[2] = molecular target: B1; assay: other fluorescence titration

Binder: B1
- fold increase in Kd with SEW04784 against without [1]: 2.5 fold

Binder: B2
- binding result [2]: binds
